According to the supplement of paper PMC9170038:

System: MS2 coat protein
Assay: apparent KD of MS2 coat protein; designed switch direction (-1 OFF switch, 1 ON switch): 1; higher = weaker reporter binding
Outline: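 The buffer was Tris-HCl pH 7.5 with KCl, MgCl2, BSA, DTT, tRNA and Tween-20. In it, SNAP-549-labelled MS2 coat protein was titrated in doubling steps from 0.7 or 1.5 nM to 3 µM over chip-bound RNA switches transcribed by stalled E. coli RNA polymerase on Illumina chips. Apparent KD is the per-design median over clusters of curve fits to normalised fluorescence.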

[1] = input ligand: microRNA oligo, concentration not stated
[2] = Eterna round: R95, input ligand: FMN 200 uM
[3] = Eterna round: R95, input ligand: microRNA oligo, concentration not stated
[4] = Eterna round: R95, input ligand: none

GAGUGGUGAAAAGGAUAUGCAUUGUUAUUCACUGUAGAAGGUUUUAACAUGAGGAUCACCCAUGUAGGACUAUUCCUGUGUUUU [Parity 60 - Jieux - Same State NG 1] (Eterna round: R96, puzzle: Same State NG 1)
apparent KD of MS2 coat protein (input ligand: FMN 200 uM): 17.6 nM
apparent KD of MS2 coat protein [1]: 14.8 nM
apparent KD of MS2 coat protein (input ligand: none): 23.2 nM

GUACUACAUGAGGAUCACCCAUGUACAAAAGUACGAGGAUAUGCAUGGACGAAAGUUGGUGCAGAAGGCGUAGUAC [Pin2Pin #3] (puzzle: Same State 1)
apparent KD of MS2 coat protein [2]: 20.2 nM
apparent KD of MS2 coat protein [3]: 25.9 nM
apparent KD of MS2 coat protein [4]: 24 nM

CUCAAAACAAGUUGCAGUGUUCGUCUUUAACAUGAGGAUCACCCAUGUAAUAGCCCGGUGGAAGCGCUCGGGCUACC [Edtireisge] (puzzle: Sensor for hsa-mir-208a)
apparent KD of MS2 coat protein [2]: 39.8 nM
apparent KD of MS2 coat protein [3]: 24 nM
apparent KD of MS2 coat protein [4]: 45.5 nM

AGCUAAAACGAAGGAUAUACAGACAUGAGGAUCACCCAUGUAUACAUGAUUUAUUGUGAUCACAUGUAGAAGGUCGUACUAACA [SameState NG2 #20] (Eterna round: R96, puzzle: Same State NG 2)
apparent KD of MS2 coat protein (input ligand: FMN 200 uM): 190 nM
apparent KD of MS2 coat protein [1]: 649 nM
apparent KD of MS2 coat protein (input ligand: none): 681 nM

UGAAUAAUGAUAGGAUAUACAUGAGGAAUCCUCGUAGAAGGAUCAUGACAUGAGGAUCACCCAUGUAGCGCUCAGAAGAGCGCA [Mat - Same State NG 1 - JL mod - D51] (Eterna round: R96, puzzle: Same State NG 1)
apparent KD of MS2 coat protein (input ligand: FMN 200 uM): 160 nM
apparent KD of MS2 coat protein [1]: 76.7 nM
apparent KD of MS2 coat protein (input ligand: none): 191 nM

CAUCGUUUGAUAGGAUAUCGCUAUACAUGAGGAUCACCCAUGUUUACCACGCUGGUUUUUCAUACCGAGAAGGAUUCUGAUGAU [salish99_SSNG02_r04_013] (Eterna round: R96, puzzle: Same State NG 2)
apparent KD of MS2 coat protein (input ligand: FMN 200 uM): 29.6 nM
apparent KD of MS2 coat protein [1]: 27.8 nM
apparent KD of MS2 coat protein (input ligand: none): 32.5 nM

AACAUUCUAUCUCAGGAUAUCAUGUCAAAGACAUGAGGAUCACCCAUGUACCAGGAAACUGGUUAUGAGAAGGGAGAUAGAAUGA [Mat - Same State 2 - Mod - D45] (Eterna round: R96, puzzle: Same State 2)
apparent KD of MS2 coat protein (input ligand: FMN 200 uM): 267 nM
apparent KD of MS2 coat protein [1]: 517 nM
apparent KD of MS2 coat protein (input ligand: none): 1080 nM

GACAUGAGGAUCACCCAUGUGAGCGCUUCAAUUUGCGCGACACAGGAUAUAGCAUGCUAUGCAUGCUAGAAGGGUGGUAAAGAC [Risoeserxe] (Eterna round: R96, puzzle: Same State NG 3)
apparent KD of MS2 coat protein (input ligand: FMN 200 uM): 595 nM
apparent KD of MS2 coat protein [1]: 49.9 nM
apparent KD of MS2 coat protein (input ligand: none): 140 nM

AAUCGUUUGAUAGGAUAUCGCUAUACAUGAGGAUCACCCAUGUUUACCACGCUGGUUUUUCAUACCGAGAAGGAUUCUGAUGAA [salish99_SSNG02_r04_003] (Eterna round: R96, puzzle: Same State NG 2)
apparent KD of MS2 coat protein (input ligand: FMN 200 uM): 31.5 nM
apparent KD of MS2 coat protein [1]: 27.1 nM
apparent KD of MS2 coat protein (input ligand: none): 33.4 nM

ACAUGAGAUAGAGGAUAUAUUGUACCUACAUGUGACAUGAGGAUCACCCAUGUGGUAAGUAUGACAUAGAAGGCUAAGAUAUGU [Equivalance 82 - Jieux - Same State NG 2] (Eterna round: R96, puzzle: Same State NG 2)
apparent KD of MS2 coat protein (input ligand: FMN 200 uM): 28.7 nM
apparent KD of MS2 coat protein [1]: 55.6 nM
apparent KD of MS2 coat protein (input ligand: none): 73.9 nM

AAUUAUUAACAUGAGGAUCACCCAUGUAUCAUGAUUACUAUUAUUAGUAUCAUGAAUAGGGUUUUUGCUCGUCUUAU [ben_bell_2] (puzzle: Sensor for hsa-mir-208a version 2)
apparent KD of MS2 coat protein [2]: 85.9 nM
apparent KD of MS2 coat protein [3]: 26.2 nM
apparent KD of MS2 coat protein [4]: 53.5 nM

AACAUGUGGUGUCACAUGAGGAUCACCCAUGUGGUAAAACCUGAGGAUAUAAAGAAAAAAAUCAAUUAGAAGGUAGGAUCACAA [AK SSNG3-V2-18.1] (Eterna round: R96, puzzle: Same State NG 3)
apparent KD of MS2 coat protein (input ligand: FMN 200 uM): 16.4 nM
apparent KD of MS2 coat protein [1]: 26.2 nM
apparent KD of MS2 coat protein (input ligand: none): 32.5 nM

GGUCGGACUCACAUGAGGAUCACCCAUGUUGCGGAAACGCCAUAGGAUAUCUGUCCGAAAAGGUCAGAGAAGGGUGAACCGACC [Fiskers NG3ss - 65] (Eterna round: R96, puzzle: Same State NG 3)
apparent KD of MS2 coat protein (input ligand: FMN 200 uM): 515 nM
apparent KD of MS2 coat protein [1]: 391 nM
apparent KD of MS2 coat protein (input ligand: none): 572 nM

GGUCCAGCCUGAGCUGGACAAAAGCAUGUACAUGAGGAUCACCCAUGUCAUGUACAAGCUUUUUGCUCGUCUUAAGA [Mat - hsa-mir-208a - 88] (puzzle: Sensor for hsa-mir-208a)
apparent KD of MS2 coat protein [2]: 1060 nM
apparent KD of MS2 coat protein [3]: 17.7 nM
apparent KD of MS2 coat protein [4]: 1020 nM

UCAAGCUUUUUGCUCGUUUUAUGUGUUGAACAUGAGGAUCACCCAUGUAUUGUACGAUCCAGUUAGAUGGUAAUUUG [JR_SHM208A_Sub041] (puzzle: Sensor for hsa-mir-208a)
apparent KD of MS2 coat protein [2]: 62.5 nM
apparent KD of MS2 coat protein [3]: 140 nM
apparent KD of MS2 coat protein [4]: 79.8 nM

UUUGCAUGACGAGGAUAUCAUUUAUUUCUUGAUUGAGAAGGCGUUCUUUUUAUUACCUAACAUGAGGAUCACCCAUGUGACAGU [JR_SSNG1_Sub046] (Eterna round: R96, puzzle: Same State NG 1)
apparent KD of MS2 coat protein (input ligand: FMN 200 uM): 13.2 nM
apparent KD of MS2 coat protein [1]: 10.3 nM
apparent KD of MS2 coat protein (input ligand: none): 16.7 nM

AAUAAACAUGAGGAUCACCCAUGUGCAACGCGUCAAGGAUAUGCAUCAAACACGCCUUGAGCAGAAGGUGACCGGA [Ladiis] (puzzle: Same State 1)
apparent KD of MS2 coat protein [2]: 245 nM
apparent KD of MS2 coat protein [3]: 41.7 nM
apparent KD of MS2 coat protein [4]: 16.7 nM

AAAUAAACACAUGAGGAUCACCCAUGUCCCAAAAUACAAACGCAGGAUAUGGGCACGAACCGUGUCCAGAAGGGCGCAAAAUAC [Esonbia] (Eterna round: R96, puzzle: Same State NG 3)
apparent KD of MS2 coat protein (input ligand: FMN 200 uM): 24.5 nM
apparent KD of MS2 coat protein [1]: 111 nM
apparent KD of MS2 coat protein (input ligand: none): 116 nM

CCGCUAAAUGGAGGAUAUGGAGCCUUAUUGGCUCCAGAAGGCUAAAACAUGAGGAUCACCCAUGUGCGGCGGUCUAAUGACCGA [Eli NG1ss - 49] (Eterna round: R96, puzzle: Same State NG 1)
apparent KD of MS2 coat protein (input ligand: FMN 200 uM): 14.7 nM
apparent KD of MS2 coat protein [1]: 34.6 nM
apparent KD of MS2 coat protein (input ligand: none): 49.3 nM

UCAAUCAUGUAAGGAUAUGCAGCCGUUUCGGCUGCAGAAGGUACUAUAAUUACAUGAGGAUCACCCAUGUUAUAAAAUUUAUAU [JL SSNG1 1.26] (Eterna round: R96, puzzle: Same State NG 1)
apparent KD of MS2 coat protein (input ligand: FMN 200 uM): 33.6 nM
apparent KD of MS2 coat protein [1]: 101 nM
apparent KD of MS2 coat protein (input ligand: none): 217 nM
